Laboratory results from article PMC7679444.

Target: GST-HA-ATG16L1(231–607) (UniProt Q676U5)
Assay: peptide microarray
Conditions: 800, 600, 400 nM; n = 9; read off a plot

Substance	percent of parent [% WT]
TMEM59 peptide (residues 268–280), wild type (from UniProt Q9BXS4) I276del	50
TMEM59 peptide (residues 268–280), wild type (from UniProt Q9BXS4) L274del; I276del	20
TMEM59 peptide (residues 268–280), wild type (from UniProt Q9BXS4) V269del	20
TMEM59 peptide (residues 268–280), wild type (from UniProt Q9BXS4) S275del; I276del	80
TMEM59 peptide (residues 268–280), wild type (from UniProt Q9BXS4) K273del; I276del	32
TMEM59 peptide (residues 268–280), wild type (from UniProt Q9BXS4) S275del	100
TMEM59 peptide (residues 268–280), wild type (from UniProt Q9BXS4) V269del; P270del	130
TMEM59 peptide (residues 268–280), wild type (from UniProt Q9BXS4) S271del	180
TMEM59 peptide (residues 268–280), wild type (from UniProt Q9BXS4) L274del; S275del	120
TMEM59 peptide (residues 268–280), wild type (from UniProt Q9BXS4) K273del	15
TMEM59 peptide (residues 268–280), wild type (from UniProt Q9BXS4) K273del; L274del; S275del	120

Other lines, results leading:

percent of parent [% WT]	Substance
22	TMEM59 peptide (residues 268–280), wild type (from UniProt Q9BXS4) L274del
160	TMEM59 peptide (residues 268–280), wild type (from UniProt Q9BXS4) K273del; S275del
72	TMEM59 peptide (residues 268–280), wild type (from UniProt Q9BXS4) L274del; S275del; I276del
180	TMEM59 peptide (residues 268–280), wild type (from UniProt Q9BXS4) V269del; S271del
160	TMEM59 peptide (residues 268–280), wild type (from UniProt Q9BXS4) P270del
7	TMEM59 peptide (residues 268–280), wild type (from UniProt Q9BXS4) K273del; L274del; I276del
22	TMEM59 peptide (residues 268–280), wild type (from UniProt Q9BXS4) K273del; L274del
180	TMEM59 peptide (residues 268–280), wild type (from UniProt Q9BXS4) P270del; S271del
